What was measured:
[1] = molecular target: T1, Human B7-H4-Fc (Human B7H4 ECD, Fc_6His) (human); assay: ELISA on coated human B7H4/Fc, absorbance 450 nm, [IgG] 0.006 to 100 nM
T1 sequence (Q7Z7D3 whole entry, looked up): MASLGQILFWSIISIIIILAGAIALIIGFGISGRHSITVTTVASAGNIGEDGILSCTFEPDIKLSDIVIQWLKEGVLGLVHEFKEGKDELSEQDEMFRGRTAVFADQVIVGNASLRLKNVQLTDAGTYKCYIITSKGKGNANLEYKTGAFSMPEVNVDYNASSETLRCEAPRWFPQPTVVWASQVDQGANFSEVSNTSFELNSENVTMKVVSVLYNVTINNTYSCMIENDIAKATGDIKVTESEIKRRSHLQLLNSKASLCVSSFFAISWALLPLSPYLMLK

[2] = molecular target: human B7-H4 on cells (human) (UniProt Q7Z7D3); assay: flow cytometry, AF647-labelled antibody at 156 ng/ml, HT29 cells expressing hB7-H4

EC50 (read off the curve) [1]: 5 nM
Geometric Mean : Comp-APC-A [2]: 1200
B1: 1D11 (Genentech anti-B7-H4 mAb) (antibody, from another filing, V domains shown)
VH: QVQLQQSGAELVRPGTSVKMSCKASGYTFTSYWIGWAKQRPGHGFEWIGDIYPGGGYTNYNEKFKGKATLTADKSSSTAYMQFSSLTSEDSAIYYCARLDGSSYRGAMDSWGQGTSITVSS
VL: DIQMTQSPSSLSASLGGKVTITCKASQGFNKYVAWYQHKPGQCPRLLIHYTSTLQPGIPARFSGSGSGRDYSFSISNLEPEDSATYFCLQYGNLLYAFGGGTKLEIKR

Reference: patent publication US20240239894A1, “THERAPEUTIC BINDING MOLECULES” (MedImmune Limited, priority 2020, published 2024)
